This note sets out measurements from publication PMC9176643 (bioRxiv, 2022).

The target in the assay is SARS-CoV Urbani RBD (SARS-CoV Urbani, UniProt P59594). Description: ELISA. (An ELISA detects its analyte on a solid surface through an enzyme-linked reagent.)

B1: S2X324 mAb (antibody, V domains shown)
VH: QITLKESGPTLVKPTQTLTLTCTFSGFSVTTSGVGVGWIRQPPGKALEYLALIYWDDDKRYSTSLKSRLTITKDTSKNQVVLTMTNMDPVDTATYYCARHTIPSIFDYWGQGILVTVSS
VL: QPVLTQPASVSGSPGQSITISCTATSSDVGNYNYVSWYQHHPGKAPKLMIYEVSNRPSGVSNRFSGSKSGNTASLTISGLQAEDEADYYCSSYTSSSLLFGGGTKLTVL
For the molecule B1, the binding result is “no binding”.
